Target: T1, Bovine plasma fibronectin (bovine, UniProt P07589 33-2478)
T1 construct: fibronectin, bovine, from plasma; about 0.5 MDa, two similar subunits attached through disulfide linkages; Adsorbed unmodified on a gold surface from 20 ug/mL in PBS; source: bought: Thermo Fisher Scientific
Experiment: dynamic single-molecule force spectroscopy (AFM); fibronectin adsorbed on a gold surface; integrin or proteoglycan tethered by PEG to the AFM tip; PBS; trigger force 500 pN, no dwell; retraction speed varied; Bell-Evans fit of rupture force against ln(loading rate), fm = 10^7 s^-1 assumed
Settings: both partners purified

T1 sequence (P07589 33-2478): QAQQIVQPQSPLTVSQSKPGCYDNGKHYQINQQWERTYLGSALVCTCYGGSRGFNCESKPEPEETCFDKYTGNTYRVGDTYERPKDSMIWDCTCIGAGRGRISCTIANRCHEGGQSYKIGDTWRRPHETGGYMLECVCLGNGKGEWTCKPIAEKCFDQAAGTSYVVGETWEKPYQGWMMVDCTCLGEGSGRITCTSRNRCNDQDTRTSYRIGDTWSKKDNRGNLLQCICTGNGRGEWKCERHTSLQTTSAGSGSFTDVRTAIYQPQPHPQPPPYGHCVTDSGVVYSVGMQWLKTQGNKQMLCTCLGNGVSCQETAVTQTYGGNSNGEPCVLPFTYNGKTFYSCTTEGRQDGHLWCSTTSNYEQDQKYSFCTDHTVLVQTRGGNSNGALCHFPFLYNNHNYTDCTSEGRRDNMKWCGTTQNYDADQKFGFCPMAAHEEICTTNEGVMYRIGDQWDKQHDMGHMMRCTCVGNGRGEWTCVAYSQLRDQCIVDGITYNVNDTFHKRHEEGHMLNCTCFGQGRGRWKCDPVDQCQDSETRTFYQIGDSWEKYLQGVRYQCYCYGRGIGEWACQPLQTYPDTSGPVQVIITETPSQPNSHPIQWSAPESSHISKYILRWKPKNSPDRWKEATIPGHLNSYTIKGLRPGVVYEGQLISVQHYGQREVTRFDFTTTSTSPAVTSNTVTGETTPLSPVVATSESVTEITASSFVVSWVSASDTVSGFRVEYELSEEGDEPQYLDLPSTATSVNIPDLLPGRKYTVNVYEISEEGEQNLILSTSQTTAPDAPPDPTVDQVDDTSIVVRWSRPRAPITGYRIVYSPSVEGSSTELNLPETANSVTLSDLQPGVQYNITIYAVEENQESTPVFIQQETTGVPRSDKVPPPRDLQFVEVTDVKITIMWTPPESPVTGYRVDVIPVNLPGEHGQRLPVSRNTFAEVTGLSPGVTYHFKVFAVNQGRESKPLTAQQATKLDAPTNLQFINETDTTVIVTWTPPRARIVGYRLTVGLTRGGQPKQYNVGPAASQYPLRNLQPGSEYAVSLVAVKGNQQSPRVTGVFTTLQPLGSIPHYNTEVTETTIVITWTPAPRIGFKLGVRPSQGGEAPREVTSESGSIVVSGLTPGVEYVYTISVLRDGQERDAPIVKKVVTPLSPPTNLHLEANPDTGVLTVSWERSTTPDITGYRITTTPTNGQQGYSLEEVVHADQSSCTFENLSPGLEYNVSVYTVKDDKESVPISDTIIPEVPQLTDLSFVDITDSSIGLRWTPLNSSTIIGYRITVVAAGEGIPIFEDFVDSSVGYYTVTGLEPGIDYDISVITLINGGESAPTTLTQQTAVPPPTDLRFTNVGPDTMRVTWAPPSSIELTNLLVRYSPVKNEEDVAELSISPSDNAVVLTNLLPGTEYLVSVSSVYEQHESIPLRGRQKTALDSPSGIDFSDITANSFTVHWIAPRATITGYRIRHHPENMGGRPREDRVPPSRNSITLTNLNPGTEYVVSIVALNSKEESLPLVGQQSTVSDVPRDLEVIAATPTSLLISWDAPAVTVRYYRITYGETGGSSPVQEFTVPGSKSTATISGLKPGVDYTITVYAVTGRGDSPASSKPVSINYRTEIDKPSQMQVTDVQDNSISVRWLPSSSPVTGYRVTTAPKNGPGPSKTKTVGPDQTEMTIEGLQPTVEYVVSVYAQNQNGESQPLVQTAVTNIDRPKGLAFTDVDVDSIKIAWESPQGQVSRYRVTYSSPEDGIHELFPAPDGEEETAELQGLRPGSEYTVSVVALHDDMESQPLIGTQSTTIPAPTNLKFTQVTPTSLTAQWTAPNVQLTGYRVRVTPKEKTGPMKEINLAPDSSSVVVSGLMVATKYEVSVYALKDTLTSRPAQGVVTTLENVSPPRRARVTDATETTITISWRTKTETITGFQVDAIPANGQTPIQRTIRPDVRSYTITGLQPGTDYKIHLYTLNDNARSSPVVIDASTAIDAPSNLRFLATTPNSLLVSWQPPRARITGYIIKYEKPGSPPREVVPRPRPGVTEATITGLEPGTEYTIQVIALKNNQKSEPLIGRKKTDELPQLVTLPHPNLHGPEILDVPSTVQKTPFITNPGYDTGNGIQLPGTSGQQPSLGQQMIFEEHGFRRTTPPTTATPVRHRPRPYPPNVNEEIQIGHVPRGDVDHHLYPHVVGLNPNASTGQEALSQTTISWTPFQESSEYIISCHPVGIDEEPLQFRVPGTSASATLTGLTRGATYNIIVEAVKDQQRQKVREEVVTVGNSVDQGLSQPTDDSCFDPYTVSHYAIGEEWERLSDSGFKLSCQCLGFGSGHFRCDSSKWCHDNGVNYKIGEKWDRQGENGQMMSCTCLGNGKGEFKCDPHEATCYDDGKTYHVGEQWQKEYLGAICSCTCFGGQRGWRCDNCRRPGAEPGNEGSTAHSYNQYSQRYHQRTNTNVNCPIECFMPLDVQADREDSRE

koff [s⁻¹] | Binder
2.4 ± 0.4 | Recombinant human syndecan-4 (natural protein, UniProt P31431 19-145, looked up, heparan sulfate glycosaminoglycan chains (proteoglycan); cysteines bound to the maleimide of an NHS-PEG-Mal linker on the AFM tip, syndecan-4, human, recombinant; No catalogue number printed; The R&D Systems product is probably the extracellular domain (surmised); also called SDC4; source: bought: R&D Systems) ESIRETEVIDPQDLLEGRYFSGALPDDEDVVGPGQESDDFELSGSGDLDDLEDSMIGPEVVHPLVPLDNHIPERAGSGSQVPTEPKKLEENEVIPKRISPVEESEDVSNKVSMSSTVQGSNIFERTE
40 ± 4 | Recombinant human decorin (natural protein, UniProt P07585 31-359, looked up, a single chondroitin or dermatan sulfate GAG chain attached at the N-terminus (proteoglycan); cysteines bound to the maleimide of an NHS-PEG-Mal linker on the AFM tip, decorin, human, recombinant; 42-kDa core protein; No catalogue number printed; The GAG chain is told of decorin in general; source: bought: R&D Systems) DEASGIGPEVPDDRDFEPSLGPVCPFRCQCHLRVVQCSDLGLDKVPKDLPPDTTLLDLQNNKITEIKDGDFKNLKNLHALILVNNKISKVSPGAFTPLVKLERLYLSKNQLKELPEKMPKTLQELRAHENEITKVRKVTFNGLNQMIVIELGTNPLKSSGIENGAFQGMKKLSYIRIADTNITSIPQGLPPSLTELHLDGNKISRVDAASLKGLNNLAKLGLSFNSISAVDNGSLANTPHLRELHLDNNKLTRVPGGLAEHKYIQVVYLHNNNISVVGSSDFCPPGHNTKKASYSGVSLFSNPVQYWEIQPSTFRCVYVRSAIQLGNYK

From article PMC6712418, “Distinct Binding Interactions of α5β1-Integrin and Proteoglycans with Fibronectin” (Biophysical Journal, 2019)
